Data set [1] deals with T1, PcICS (isobutyryl CoA synthetase) (Pseudomonas chlororaphis, UniProt Q5CD72).
T1 construct: gene acsA; purified recombinant protein; tag and host for purification not described in main text
Put plainly: enzyme assay, MS detection of tigloyl-CoA. The data set is classed as biochemical.

In data set [2] the target is T2, TS (3β-tigloyloxytropane synthase; AbTS) (Atropa belladonna, UniProt A0AAF1BX09).
T2 construct: full-length codon-optimised CDS (TSopt) in pMAL-c5x, N-terminal MBP tag (cleavage not mentioned), E. coli BL21 (DE3), amylose resin
In words: steady-state kinetics, LC-MS product analysis. Conditions: co-substrate 3β-tropanol; 50 mM glycine-NaOH pH 8.6, 30 °C. Format: biochemical. An excerpt: (§1) steady-state kinetics, LC-MS product analysis on TS (3β-tigloyloxytropane synthase; AbTS)

Data set [3] concerns C/C=C(\C)C(=O)SCCNC(=O)CCNC(=O)[C@H](O)C(C)(C)COP(=O)(O)OP(=O)(O)OC[C@H]1O[C@@H](n2cnc3c(N)ncnc32)[C@H](O)[C@@H]1OP(=O)(O)O. Put plainly: steady-state kinetics, LC-MS product analysis. The data set is classed as biochemical, Atropa belladonna. To be noted: co-substrate 3β-tropanol, 50 mM glycine-NaOH pH 8.6, 30 °C.
Source text: as §1

The test system of data set [4] is CN1[C@@H]2CC[C@H]1C[C@H](O)C2. In words: steady-state kinetics, LC-MS product analysis. To be noted: acyl donor tigloyl-CoA, 50 mM glycine-NaOH pH 8.6, 30 °C. Format: biochemical, Atropa belladonna.
Source text: as §1

For data set [5], the system named is CC(=O)SCCNC(=O)CCNC(=O)[C@H](O)C(C)(C)COP(=O)(O)OP(=O)(O)OC[C@H]1O[C@@H](n2cnc3c(N)ncnc32)[C@H](O)[C@@H]1OP(=O)(O)O. In words: steady-state kinetics, LC-MS product analysis. Format: biochemical, Atropa belladonna. Conditions: co-substrate 3β-tropanol, 50 mM glycine-NaOH pH 8.6, 30 °C.
Source text: as §1

For data set [6], the system named is CC(C)(COP(=O)(O)OP(=O)(O)OC[C@H]1O[C@@H](n2cnc3c(N)ncnc32)[C@H](O)[C@@H]1OP(=O)(O)O)[C@@H](O)C(=O)NCCC(=O)NCCSC(=O)c1ccccc1. In words: steady-state kinetics, LC-MS product analysis. The data set is classed as biochemical, Atropa belladonna. Conditions: co-substrate 3β-tropanol, 50 mM glycine-NaOH pH 8.6, 30 °C.
Source text: as §1

As for `CC(C)(COP(=O)(O)OP(=O)(O)OC[C@H]1O[C@@H](n2cnc3c(N)ncnc32)[C@H](O)[C@@H]1OP(=O)(O)O)[C@@H](O)C(=O)NCCC(=O)NCCS` [CoA], the “enzyme assay, MS detection of tigloyl-CoA” value in data set [1] (co-substrate tiglic acid) is “purified PcICS catalyzed the synthesis of tigloyl-CoA from CoA and tiglic acid”.
By Km is commonly meant the concentration of substrate that gives half-maximal velocity. Take `CC(=O)SCCNC(=O)CCNC(=O)[C@H](O)C(C)(C)COP(=O)(O)OP(=O)(O)OC[C@H]1O[C@@H](n2cnc3c(N)ncnc32)[C@H](O)[C@@H]1OP(=O)(O)O` [acetyl-CoA]: in data set [2], the Km turned out to be 90 ± 20 µM.
The same measure, in the same setting: the result for `CC(C)(COP(=O)(O)OP(=O)(O)OC[C@H]1O[C@@H](n2cnc3c(N)ncnc32)[C@H](O)[C@@H]1OP(=O)(O)O)[C@@H](O)C(=O)NCCC(=O)NCCSC(=O)c1ccccc1` [benzoyl-CoA] reads 920 ± 580 µM.
Regarding `C/C=C(\C)C(=O)O` [tiglic acid], the “enzyme assay, MS detection of tigloyl-CoA” value in data set [1] (co-substrate CoA) is “purified PcICS catalyzed the synthesis of tigloyl-CoA from CoA and tiglic acid”.
The kcat is the maximal rate divided by the concentration of active sites. One may read the kcat/Km as the second-order rate constant that governs catalysis at low substrate concentration. Turning to “TS (3β-tigloyloxytropane synthase; AbTS) (Atropa belladonna)”, in data set [3], the Michaelis-Menten constant (Km) is 20 ± 4 µM, the turnover number (kcat) was 7.38 ± 0.25 s⁻¹ and the kcat/Km was found to be 338000 ± 49100 M⁻¹ s⁻¹. In data set [4], the Michaelis constant (Km) amounted to 360 ± 50 µM, the kcat amounted to 6.84 ± 0.3 s⁻¹ and the kcat/Km stood at 19000 ± 1660 M⁻¹ s⁻¹.
On to “TS (3β-tigloyloxytropane synthase; AbTS) (Atropa belladonna; F46I)”, for which the Km in data set [5] came out at 350 ± 120 µM; in data set [3], 410 ± 110 µM; in data set [4] it was 320 ± 60 µM; in data set [6] it was 370 ± 90 µM. In addition, the turnover number (kcat) in data set [5] amounted to 0.005 ± 0.0008 s⁻¹; in data set [3], 1.42 ± 0.17 s⁻¹; in data set [4], 1.44 ± 0.09 s⁻¹; in data set [6] it was 0.04 ± 0.004 s⁻¹. Moreover, the kcat/Km in data set [5] was 16.2 ± 3.42 M⁻¹ s⁻¹; in data set [3], 3590 ± 570 M⁻¹ s⁻¹; in data set [4], 4550 ± 594 M⁻¹ s⁻¹; in data set [6], 99.3 ± 13.3 M⁻¹ s⁻¹.
As to “TS (3β-tigloyloxytropane synthase; AbTS) (Atropa belladonna; F46I/S40T)”, in data set [3], the Km is 150 ± 20 µM, the kcat was determined as 2.27 ± 0.1 s⁻¹ and the catalytic efficiency (kcat/Km) was found to be 14800 ± 1370 M⁻¹ s⁻¹. Further, in data set [6], the Km stood at 260 ± 80 µM, the kcat was 0.08 ± 0.008 s⁻¹ and the kcat/Km is 305 ± 54.1 M⁻¹ s⁻¹.
On to “TS (3β-tigloyloxytropane synthase; AbTS) (Atropa belladonna; S40T)”, for which the Km in data set [5] was 70 ± 10 µM; in data set [3], 20 ± 3 µM; in data set [4], 320 ± 70 µM; in data set [6], 840 ± 380 µM. The kcat in data set [5] came to 0.09 ± 0.004 s⁻¹; in data set [3], 11.4 ± 0.34 s⁻¹; in data set [4], 11.1 ± 0.81 s⁻¹; in data set [6] it was 0.03 ± 0.006 s⁻¹. Besides, the kcat/Km in data set [5] is 1190 ± 155 M⁻¹ s⁻¹; in data set [3] it was 572000 ± 72300 M⁻¹ s⁻¹; in data set [4], 35200 ± 5480 M⁻¹ s⁻¹; in data set [6], 32.7 ± 6.77 M⁻¹ s⁻¹.

Values taken from paper PMC11058270, “Discovering a mitochondrion-localized BAHD acyltransferase involved in calystegine biosynthesis and engineering the production of 3β-tigloyloxytropane” (Nature Communications, 2024).
